Patent US12338277

Columns and labels:
Assay in all cases: cell-based or functional assay
[1] = target: Murine leukemia virus (MuLV) envelope on pseudovirus (Murine leukemia virus)
[2] = target: HIV-1 envelope of pseudovirus ZM135M.PL10a (HIV-1)
[3] = target: HIV-1 envelope of pseudovirus BJOX015000.11.5 (HIV-1)
[4] = target: HIV-1 envelope of pseudovirus 7030102001E5(Rev-) (HIV-1)
[5] = target: HIV-1 envelope of pseudovirus 620345.c01 (HIV-1)
[6] = target: HIV-1 Env of pseudovirus X2131_C1_85 (HIV-1)
[7] = target: HIV-1 Env of pseudovirus 231966.c02 (HIV-1)
[8] = target: HIV-1 Env of pseudovirus BJOX010000.06.2 (HIV-1)
[9] = target: HIV-1 envelope of pseudovirus 62357_14_03_4589 (HIV-1)
[10] = target: HIV-1 envelope of pseudovirus 6545.v4.c1 (HIV-1)
[11] = target: HIV-1 envelope of pseudovirus BJOX025000.01.1 (HIV-1)
[12] = target: HIV-1 envelope of pseudovirus HIV-001428-2.42 (HIV-1)
[13] = target: HIV-1 envelope of pseudovirus 211-9 (HIV-1)
[14] = target: HIV-1 Env of pseudovirus REJO4541.67 (HIV-1)
[15] = target: HIV-1 Env of pseudovirus R2184.c04 (HIV-1)
[16] = target: HIV-1 Env of pseudovirus Ce1172_H1 (HIV-1)
[17] = target: HIV-1 envelope of pseudovirus C2101.c01 (HIV-1)
[18] = target: HIV-1 envelope of pseudovirus ZM214M.PL15 (HIV-1)
[19] = target: HIV-1 Env of pseudovirus SC422661.8 (HIV-1)
[20] = target: HIV-1 envelope of pseudovirus T251-18 (HIV-1)
[21] = target: HIV-1 Env of pseudovirus 6240_08_TA5_4622 (HIV-1)
[22] = target: HIV-1 Env of pseudovirus ZM247v1(Rev-) (HIV-1)
[23] = target: HIV-1 Env of pseudovirus Du172.17 (HIV-1)
[24] = target: HIV-1 Env of pseudovirus THRO4156.18 (HIV-1)
[25] = target: HIV-1 Env of pseudovirus 928-28 (HIV-1)
[26] = target: HIV-1 envelope of pseudovirus TRJO4551.58 (HIV-1)
[27] = target: HIV-1 Env of pseudovirus WITO4160.33 (HIV-1)
[28] = target: HIV-1 Env of pseudovirus BF1266.431a (HIV-1)
[29] = target: HIV-1 Env of pseudovirus Q451.e2 (HIV-1)
[30] = target: HIV-1 Env of pseudovirus Ce1176_A3 (HIV-1)
[31] = target: HIV-1 envelope of pseudovirus 191084 B7-19 (HIV-1)
[32] = target: HIV-1 Env of pseudovirus 3415.v1.c1 (HIV-1)
[33] = target: HIV-1 envelope spike of pseudovirus R1166.c1 (HIV-1)
[34] = target: HIV-1 Env of pseudovirus 6952.v1.c20 (HIV-1)
[35] = target: HIV-1 Env of pseudovirus Du156.12 (HIV-1)
[36] = target: HIV-1 envelope of pseudovirus 3817.v2.c59 (HIV-1)
[37] = target: HIV-1 envelope of pseudovirus Ce1086_B2 (HIV-1)
[38] = target: HIV-1 Env of pseudovirus T255-34 (HIV-1)
[39] = target: HIV-1 Env of pseudovirus ZM135M.PL10a (HIV-1)
[40] = target: HIV-1 envelope of pseudovirus Ce2010_F5 (HIV-1)
[41] = target: HIV-1 envelope of pseudovirus BJOX009000.02.4 (HIV-1)
[42] = target: HIV-1 envelope of pseudovirus 1394C9G1(Rev-) (HIV-1)
[43] = target: HIV-1 envelope of pseudovirus Ce0682_E4 (HIV-1)
[44] = target: HIV-1 envelope of pseudovirus R1166.c01 (HIV-1)
[45] = target: HIV-1 envelope of pseudovirus REJO4541.67 (HIV-1)
[46] = target: HIV-1 Env of pseudovirus X1193_c1 (HIV-1)
[47] = target: HIV-1 envelope of pseudovirus 6480.v4.c25 (HIV-1)
[48] = target: HIV-1 Env of pseudovirus C1080.c03 (HIV-1)
[49] = target: HIV-1 Env of pseudovirus 1054_07_TC4_1499 (HIV-1)

10-996 (antibody), sequence (VH): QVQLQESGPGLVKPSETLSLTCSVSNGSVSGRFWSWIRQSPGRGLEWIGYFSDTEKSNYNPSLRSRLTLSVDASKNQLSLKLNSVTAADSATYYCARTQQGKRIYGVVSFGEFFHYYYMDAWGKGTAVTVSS
10-996 (antibody), sequence (VL): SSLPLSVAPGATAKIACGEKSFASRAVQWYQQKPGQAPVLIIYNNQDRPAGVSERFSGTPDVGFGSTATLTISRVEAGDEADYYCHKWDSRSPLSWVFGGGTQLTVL

With 10-996 (antibody) the IC50 (TZM-bl neutralization assay) [1] was greater than 40 µg/mL, the IC80 (TZM-bl neutralization assay) [1] was greater than 40 µg/mL and the IC50 (TZM-bl neutralization) [2] was 0.099 µg/mL. For the same substance, the IC50 (TZM-bl neutralization) [3] was greater than 50 µg/mL, the IC50 (TZM-bl neutralization) [4] was 0.013 µg/mL and the IC50 (TZM-bl neutralization) [5] was greater than 50 µg/mL. The IC80 (TZM-bl neutralization) [6] was 0.085 µg/mL, the IC80 (TZM-bl neutralization) [7] was greater than 50 µg/mL and the IC80 (TZM-bl neutralization) [8] was greater than 50 µg/mL. For the same substance, the IC50 (TZM-bl neutralization) [9] was 29.3 µg/mL, the IC50 (TZM-bl neutralization) [10] was greater than 50 µg/mL and the IC50 (TZM-bl neutralization) [11] was greater than 50 µg/mL. The IC50 (TZM-bl neutralization) [12] was 0.04 µg/mL, the IC50 (TZM-bl neutralization) [13] was 0.75 µg/mL and the IC80 (TZM-bl neutralization) [14] was greater than 50 µg/mL. It also gave an IC80 (TZM-bl neutralization) [15] greater than 50 µg/mL, an IC80 (TZM-bl neutralization) [16] of 0.173 µg/mL and an IC50 (TZM-bl neutralization) [17] greater than 50 µg/mL. It also gave an IC50 (TZM-bl neutralization) [18] of 0.413 µg/mL, an IC80 (TZM-bl neutralization) [19] of 0.627 µg/mL and an IC50 (TZM-bl neutralization) [20] of 0.939 µg/mL. The IC80 (TZM-bl neutralization) [21] was 0.348 µg/mL, the IC80 (TZM-bl neutralization) [22] was 0.252 µg/mL and the IC80 (TZM-bl neutralization) [23] was 0.607 µg/mL. It also gave an IC80 (TZM-bl neutralization) [24] greater than 50 µg/mL, an IC80 (TZM-bl neutralization) [25] of 7.15 µg/mL and an IC50 (TZM-bl neutralization) [26] of 0.147 µg/mL. For the same substance, the IC80 (TZM-bl neutralization) [27] was 6.48 µg/mL, the IC80 (TZM-bl neutralization) [28] was greater than 50 µg/mL and the IC80 (TZM-bl neutralization) [29] was greater than 50 µg/mL. For the same substance, the IC80 (TZM-bl neutralization) [30] was 0.151 µg/mL, the IC50 (TZM-bl neutralization) [31] was 0.057 µg/mL and the IC80 (TZM-bl neutralization) [32] was greater than 50 µg/mL. It also gave an IC50 (TZM-bl neutralization assay) [33] greater than 40 µg/mL, an IC80 (TZM-bl neutralization assay) [33] greater than 40 µg/mL and an IC80 (TZM-bl neutralization) [34] of 0.188 µg/mL. The IC80 (TZM-bl neutralization) [35] was 0.101 µg/mL, the IC50 (TZM-bl neutralization) [36] was 8.15 µg/mL and the IC50 (TZM-bl neutralization) [37] was greater than 50 µg/mL. For the same substance, the IC80 (TZM-bl neutralization) [38] was greater than 50 µg/mL, the IC80 (TZM-bl neutralization) [39] was 0.553 µg/mL and the IC50 (TZM-bl neutralization) [40] was greater than 50 µg/mL. It also gave an IC50 (TZM-bl neutralization) [41] greater than 50 µg/mL, an IC50 (TZM-bl neutralization) [42] of 0.086 µg/mL and an IC50 (TZM-bl neutralization) [43] greater than 50 µg/mL. It also gave an IC50 (TZM-bl neutralization) [44] greater than 50 µg/mL, an IC50 (TZM-bl neutralization) [45] greater than 50 µg/mL and an IC80 (TZM-bl neutralization) [46] of 0.482 µg/mL. It also gave an IC50 (TZM-bl neutralization) [47] of 0.01 µg/mL, an IC80 (TZM-bl neutralization) [48] greater than 50 µg/mL and an IC80 (TZM-bl neutralization) [49] of 0.901 µg/mL.
